Assay [1] addresses FITC-PRDM14_(197–213) (human). The experiment in a line: fluorescence polarisation.
The target in assay [2] is Nsp3 Ubl1 (SARS-CoV-2) (UniProt P0DTD1). The experiment in a line: fluorescence polarisation. Background: Polarisation of emitted light reports the rotation of a fluorescent probe.

As to “Nsp3 SUD-M A1397E, V1453K, S1478D (from UniProt P0DTD1 819-2763) (domain or fragment)”, the fold reduction of affinity against wild-type Nsp3 SUD-M in assay [1] amounted to 100 fold.

Take “Y to V mutant of the NCOA2_(1074–1089) peptide (from UniProt Q15596 1074-1089)”: in assay [2], the fold lower affinity than NCOA2 (1074–1089) is 20 fold.

Source of the values: PMC10499821.
